{"source": "paper PMC7226732", "about": "(2020)", "parents": {"B1": {"name": "V5-Cx40 (wild type) [rat] / GFP-LC3B (expressed in HEK293A cells) [not stated (human cDNA cloned; a plasmid from Dr. Yoshimori also named)] (parent complex)", "chain 1": "MGDWSFLGEFLEEVHKHSTVIGKVWLTVLFIFRMLVLGTAAESSWGDEQADFRCDTIQPGCQNVCYDQAFPISHIRYWVLQIIFVSTPSLVYMGHAMHTVRMQEKQKLREAEKAKEAGGTGTYEYLAEKAELSCWKEVNGKIVLQGTLLNTYVCTILIRTAMEVAFMVGQYLLYGIFLDTLHVCRRSPCPHPVNCYVSRPTEKNVFIVFMMAVAGLSLFLSLAELYHLGWKKIRQRLAKSRQGDKHQLLGPSTSLVQGLTPPPDFNQCLKNSPDEKFFSDFSNNMGSRKNPDPLATEEVPNQEQIPEEGFIHTQYGQKPEQPSGASAGHRFPQGYHSDKRRLSKASSKARSDDLSV", "chain 2": "not shown"}}}
{"variants_of": "B1", "assay": "co-immunoprecipitation (IP: V5) and Western blot quantification; HEK293A cell lysates; read off a plot"}
{"variant": "chain 1 W4A, chain 1 L7A", "ratio to parent": "~1.9"}
